{
  "source": "patent US20030175929A1",
  "about": "(ORIENTAL YEAST, published 2003)",
  "binders": {"B1": {"name": "human creatine kinase B type subunit (enzyme)", "chain": "not shown", "notes": "Co-expressed with the CK-M subunit from the single plasmid pTRP-hCKMB; also called CK-B subunit; CK-B"}, "B2": {"name": "human creatine kinase M type subunit (enzyme)", "chain": "not shown", "notes": "Co-expressed with the CK-B subunit from the single plasmid pTRP-hCKMB; also called CK-M subunit; CK-M"}},
  "key": {"[1]": {"target": "the molecule itself", "test": "co-expression in E. coli; Q-Sepharose separation of dimeric CK isozymes (homodimer)", "experimental": "(§1) The cells thus obtained were collected and suspended in a 50 mM phosphate buffer (pH 7.5) containing 5 mM of mercaptoethanol. After disrupting the cells by ultrasonication, the supernatant was referred to as a recombinant CK extract. From this extract, CK was recovered as a precipitate by 70%-saturation ammonium sulfate salting out. The precipitate thus salted out was dissolved in 1.5 M ammonium sulfate (pH 7.5) and subjected to hydrophobic column chromatography by using a Buthyl-Toyopearl C650 gel (manufactured by Tosoh). The CK activity was eluted at 1.5-0 M-gradient (pH 7.5) ammonium sulfate elution. The CK activity elution peaks were combined, concentrated by using an ultrafiltration membrane (YM10, manufactured by Amicon) and then dialyzed against a 50 mM phosphate buffer (pH 7.5). Fractions eluted by the hydrophobic chromatography were adsorbed by a Q-Sepharose column (manufactured by Pharmacia, Sweden) and thus it was attempted to separate CK isozymes.\n(§2) As a result, the CK activity was separated into the MM type (unadsorbed fraction), the MB type (elution peak 1) and the BB type (elution peak 2). […] It was thus found out that CK-MB was expressed at a high dose in this recombinant strain. It could be also confirmed that three human recombinant CK isozymes could be prepared by using this expression strain alone. […]"}, "[2]": {"target": "B1", "test": "co-expression in E. coli; Q-Sepharose separation of dimeric CK isozymes; MB fraction purified to electrophoretic homogeneity by Sephacryl-S200HR gel filtration", "experimental": "as §1, §2"}},
  "data": [
    {"binder": "B1", "values": [
      {"measurement": "binding result", "setting": "[1]", "value": "binds"}
    ]},
    {"binder": "B2", "values": [
      {"measurement": "binding result", "setting": "[2]", "value": "binds"},
      {"measurement": "binding result", "setting": "[1]", "value": "binds"}
    ]}
  ]
}
